Test results: the supplement of paper PMC10567573

B1: RSPH3 (parent)
chain: QRLEEQERRHREEKERRKKQQWEI

Variants of: B1
Assay: protein stability index of a GFP-peptide fusion (GPS, HEK-293T) (PSI 1-6); higher = more stable
Conditions: c terminus: a fixed tail appended
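Note: lentivirally expressed fusions sorted by FACS into six bins by GFP to DsRed ratio, PSI derived from sequencing read proportions per bin multiplied by bin number.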

Row | Variant | protein stability index
1 | QRLEEQTRRHREEKERRKKQQWEI | 4.95
2 | QRLEEQSRRHREEKERRKKQQWEI | 3.88
3 | QRLEEQYRRHREEKERRKKQQWEI | 3.81
4 | QRLEEQVRRHREEKERRKKQQWEI | 4.57
5 | QRLEEQWRRHREEKERRKKQQWEI | 4.25
6 | QRLEEQRRRHREEKERRKKQQWEI | 4.26
7 | QRLEEQERRHRYEKERRKKQQWEI | 3.78
8 | QRLEEQERRHRGEKERRKKQQWEI | 4.36
9 | QRLEEQERRHRSEKERRKKQQWEI | 3.99
10 | QRLEEQERRHRWEKERRKKQQWEI | 2.58
11 | QRLEEQERRHRVEKERRKKQQWEI | 4.5
12 | QRLEEQERRHRHEKERRKKQQWEI | 4.03
13 | QRLEEQERRHRCEKERRKKQQWEI | 4.32
14 | QRLEEQERRHRREKERRKKQQWEI | 4.37
15 | QRLEEQERRHRDEKERRKKQQWEI | 5
16 | QRLEEQERRHRPEKERRKKQQWEI | 4.07
17 | QRLEEQERRHRAEKERRKKQQWEI | 4.84
18 | QRLEEQERRHRIEKERRKKQQWEI | 3.64
19 | QRLEEQERRHRQEKERRKKQQWEI | 4.2
20 | QRLEEQERRHRNEKERRKKQQWEI | 4.57
21 | QRLEEQERRHRTEKERRKKQQWEI | 4.28
22 | QRLEEQERRHRKEKERRKKQQWEI | 3.58
23 | QRLEEQERRHRLEKERRKKQQWEI | 4.42
24 | QRLEEQERRHREEKENRKKQQWEI | 4.82

Row | Variant | protein stability index
25 | QRLEEQERRHREEKEQRKKQQWEI | 4.75
26 | QRLEEQERRHREEKEKRKKQQWEI | 4.57
27 | QRLEEQERRHREEKEPRKKQQWEI | 4.97
28 | QRLEEQERRHREEKESRKKQQWEI | 4.9
29 | QRLEEQERRHREEKEDRKKQQWEI | 5.37
30 | QRLEEQERRHREEKEVRKKQQWEI | 5.18
31 | QRLEEQERRHREEKEHRKKQQWEI | 4.77
32 | QRLEEQERRHREEKEFRKKQQWEI | 4.06
33 | QRLEEQERRHREEKETRKKQQWEI | 5.11
34 | QRLEEQERRHREEKECRKKQQWEI | 5.12
35 | QRLEEQERRHREEKEERKKQQWEI | 5.23
36 | QRLEEQERRHREEKEWRKKQQWEI | 4.02
37 | QRLEEQERRHREEKEIRKKQQWEI | 5
38 | QRLEEQERRHREEKELRKKQQWEI | 4.67
39 | QRLEEQERRHREEKEARKKQQWEI | 4.5
40 | QRLEEQERRHREEKEYRKKQQWEI | 4.74
41 | QRLEEQERRHREEKEGRKKQQWEI | 4.84
42 | QRLEEQERRHREEKEMRKKQQWEI | 5.04
43 | QRLEEQERRHREWKERRKKQQWEI | 3.34
44 | QRLEEQERRHRELKERRKKQQWEI | 3.95
45 | QRLEEQERRHREVKERRKKQQWEI | 4.14
46 | QRLEEQERRHREQKERRKKQQWEI | 4.52
47 | QRLEEQERRHRERKERRKKQQWEI | 4.47
48 | QRLEEQERRHREAKERRKKQQWEI | 3.79

Row | Variant | protein stability index
49 | QRLEEQERRHREGKERRKKQQWEI | 4.55
50 | QRLEEQERRHRESKERRKKQQWEI | 4.02
51 | QRLEEQERRHREFKERRKKQQWEI | 3.72
52 | QRLEEQERRHREDKERRKKQQWEI | 4.74
53 | QRLEEQERRHRECKERRKKQQWEI | 3.82
54 | QRLEEQERRHREPKERRKKQQWEI | 4.06
55 | QRLEEQERRHREIKERRKKQQWEI | 3.88
56 | QRLEEQERRHREHKERRKKQQWEI | 4.19
57 | QRLEEQERRHRENKERRKKQQWEI | 4.16
58 | QRLEEQERRHRETKERRKKQQWEI | 4.32
59 | QRLEEQERRHREYKERRKKQQWEI | 3.77
60 | QRLEEQERRHREKKERRKKQQWEI | 4.17
61 | QRLEEQERRHREMKERRKKQQWEI | 3.99
62 | QRLEEQERRHREENERRKKQQWEI | 4.87
63 | QRLEEQERRHREEAERRKKQQWEI | 4.83
64 | QRLEEQERRHREELERRKKQQWEI | 3.94
65 | QRLEEQERRHREEIERRKKQQWEI | 3.76
66 | QRLEEQERRHREESERRKKQQWEI | 3.26
67 | QRLEEQERRHREEFERRKKQQWEI | 4.69
68 | QRLEEQERRHREETERRKKQQWEI | 4.08
69 | QRLEEQERRHREECERRKKQQWEI | 4.63
70 | QRLEEQERRHREEHERRKKQQWEI | 4.73
71 | QRLEEQERRHREEYERRKKQQWEI | 4.34
72 | QRLEEQERRHREEVERRKKQQWEI | 4.72

Row | Variant | protein stability index
73 | QRLEEQERRHREEWERRKKQQWEI | 4.45
74 | QRLEEQERRHREEDERRKKQQWEI | 4.65
75 | QRLEEQERRHREEQERRKKQQWEI | 4.26
76 | QRLEEQERRHREERERRKKQQWEI | 4.15
77 | QRLEEQERRHREEGERRKKQQWEI | 5.25
78 | QRLEEQERRHREEEERRKKQQWEI | 5.13
79 | QRLEEQERRHREEPERRKKQQWEI | 4.55
80 | QRLEEQERRHREEMERRKKQQWEI | 4.25
81 | QRLEEQERCHREEKERRKKQQWEI | 4.84
82 | QRLEEQERNHREEKERRKKQQWEI | 4.56
83 | QRLEEQERSHREEKERRKKQQWEI | 3.85
84 | QRLEEQERGHREEKERRKKQQWEI | 4.85
85 | QRLEEQERPHREEKERRKKQQWEI | 4.92
86 | QRLEEQERFHREEKERRKKQQWEI | 4.98
87 | QRLEEQERWHREEKERRKKQQWEI | 4.47
88 | QRLEEQERIHREEKERRKKQQWEI | 4.4
89 | QRLEEQEREHREEKERRKKQQWEI | 4.49
90 | QRLEEQERDHREEKERRKKQQWEI | 4.97
91 | QRLEEQERHHREEKERRKKQQWEI | 5.33
92 | QRLEEQERLHREEKERRKKQQWEI | 4.81
93 | QRLEEQERAHREEKERRKKQQWEI | 5.32
94 | QRLEEQERMHREEKERRKKQQWEI | 5.37
95 | QRLEEQERKHREEKERRKKQQWEI | 4.21
96 | QRLEEQERTHREEKERRKKQQWEI | 4.51

Row | Variant | protein stability index
97 | QRLEEQERVHREEKERRKKQQWEI | 4.85
98 | QRLEEQERYHREEKERRKKQQWEI | 4.66
99 | QRLEEQERQHREEKERRKKQQWEI | 4.63
100 | QRLEEQEQRHREEKERRKKQQWEI | 4.61
101 | QRLEEQELRHREEKERRKKQQWEI | 3.69
102 | QRLEEQENRHREEKERRKKQQWEI | 3.93
103 | QRLEEQEHRHREEKERRKKQQWEI | 4.57
104 | QRLEEQEMRHREEKERRKKQQWEI | 3.7
105 | QRLEEQEIRHREEKERRKKQQWEI | 4.42
106 | QRLEEQESRHREEKERRKKQQWEI | 4.64
107 | QRLEEQEYRHREEKERRKKQQWEI | 4.24
108 | QRLEEQEERHREEKERRKKQQWEI | 4.95
109 | QRLEEQEKRHREEKERRKKQQWEI | 4.33
110 | QRLEEQEFRHREEKERRKKQQWEI | 4.28
111 | QRLEEQEPRHREEKERRKKQQWEI | 5.03
112 | QRLEEQECRHREEKERRKKQQWEI | 3.71
113 | QRLEEQEWRHREEKERRKKQQWEI | 4.09
114 | QRLEEQEARHREEKERRKKQQWEI | 4.86
115 | QRLEEQEGRHREEKERRKKQQWEI | 5.02
116 | QRLEEQETRHREEKERRKKQQWEI | 4.97
117 | QRLEEQEVRHREEKERRKKQQWEI | 5.02
118 | QRLEEQEDRHREEKERRKKQQWEI | 4.79
119 | QRLEEQERRAREEKERRKKQQWEI | 4.94
120 | QRLEEQERRYREEKERRKKQQWEI | 4.05

Row | Variant | protein stability index
121 | QRLEEQERRVREEKERRKKQQWEI | 4.45
122 | QRLEEQERRQREEKERRKKQQWEI | 5.04
123 | QRLEEQERRFREEKERRKKQQWEI | 4.48
124 | QRLEEQERRNREEKERRKKQQWEI | 5.08
125 | QRLEEQERRKREEKERRKKQQWEI | 4.84
126 | QRLEEQERRGREEKERRKKQQWEI | 4.51
127 | QRLEEQERRSREEKERRKKQQWEI | 4.53
128 | QRLEEQERRTREEKERRKKQQWEI | 4.79
129 | QRLEEQERREREEKERRKKQQWEI | 5.26
130 | QRLEEQERRRREEKERRKKQQWEI | 3.69
131 | QRLEEQERRLREEKERRKKQQWEI | 4.87
132 | QRLEEQERRPREEKERRKKQQWEI | 4.44
133 | QRLEEQERRWREEKERRKKQQWEI | 4.49
134 | QRLEEQERRDREEKERRKKQQWEI | 4.38
135 | QRLEEQERRMREEKERRKKQQWEI | 4.43
136 | QRLEEQERRIREEKERRKKQQWEI | 4.5
137 | QRLEEQERRHGEEKERRKKQQWEI | 5.08
138 | QRLEEQERRHKEEKERRKKQQWEI | 4.23
139 | QRLEEQERRHHEEKERRKKQQWEI | 4.51
140 | QRLEEQERRHLEEKERRKKQQWEI | 4.25
141 | QRLEEQERRHIEEKERRKKQQWEI | 4.22
142 | QRLEEQERRHWEEKERRKKQQWEI | 4.44
143 | QRLEEQERRHYEEKERRKKQQWEI | 4.68
144 | QRLEEQERRHMEEKERRKKQQWEI | 4.6

Row | Variant | protein stability index
145 | QRLEEQERRHDEEKERRKKQQWEI | 4.93
146 | QRLEEQERRHCEEKERRKKQQWEI | 4.83
147 | QRLEEQERRHSEEKERRKKQQWEI | 4.35
148 | QRLEEQERRHNEEKERRKKQQWEI | 5.19
149 | QRLEEQERRHPEEKERRKKQQWEI | 5.34
150 | QRLEEQERRHFEEKERRKKQQWEI | 4.64
151 | QRLEEQERRHQEEKERRKKQQWEI | 4.67
152 | QRLEEQERRHVEEKERRKKQQWEI | 4.24
153 | QRLEEQERRHTEEKERRKKQQWEI | 4.62
154 | QRLEEQERRHAEEKERRKKQQWEI | 4.91
155 | QRLEEQERRHEEEKERRKKQQWEI | 5.19
156 | QRLEEQERRHREEKERCKKQQWEI | 4.59
157 | QRLEEQERRHREEKERFKKQQWEI | 4.41
158 | QRLEEQERRHREEKERMKKQQWEI | 4.77
159 | QRLEEQERRHREEKERGKKQQWEI | 4.83
160 | QRLEEQERRHREEKERAKKQQWEI | 4.94
161 | QRLEEQERRHREEKERPKKQQWEI | 4.31
162 | QRLEEQERRHREEKERQKKQQWEI | 4.82
163 | QRLEEQERRHREEKERNKKQQWEI | 4.76
164 | QRLEEQERRHREEKERKKKQQWEI | 4.92
165 | QRLEEQERRHREEKEREKKQQWEI | 5.3
166 | QRLEEQERRHREEKERIKKQQWEI | 3.87
167 | QRLEEQERRHREEKERLKKQQWEI | 5.03
168 | QRLEEQERRHREEKERDKKQQWEI | 4.42

Row | Variant | protein stability index
169 | QRLEEQERRHREEKERHKKQQWEI | 4.53
170 | QRLEEQERRHREEKKRRKKQQWEI | 4.74
171 | QRLEEQERRHREEKHRRKKQQWEI | 3.91
172 | QRLEEQERRHREEKMRRKKQQWEI | 4.02
173 | QRLEEQERRHREEKRRRKKQQWEI | 3.75
174 | QRLEEQERRHREEKQRRKKQQWEI | 4.85
175 | QRLEEQERRHREEKWRRKKQQWEI | 3.18
176 | QRLEEQERRHREEKNRRKKQQWEI | 5.12
177 | QRLEEQERRHREEKGRRKKQQWEI | 4.36
178 | QRLEEQERRHREEKTRRKKQQWEI | 4.7
179 | QRLEEQERRHREEKPRRKKQQWEI | 3.62
180 | QRLEEQERRHREEKYRRKKQQWEI | 3.09
181 | QRLEEQERRHREEKIRRKKQQWEI | 4.09
182 | QRLEEQERRHREEKDRRKKQQWEI | 4.68
183 | QRLEEQERRHREEKARRKKQQWEI | 4.44
184 | QRLEEQERRHREEKCRRKKQQWEI | 3.74
185 | QRLEEQERRHREEKVRRKKQQWEI | 4.14
186 | QRLEEQERRHREEKLRRKKQQWEI | 4.63
187 | QRLEEQERRHREEKSRRKKQQWEI | 4.58
188 | QRLEEQERRHREEKFRRKKQQWEI | 3.92
